Test system: βlox5 cells
Experiment: RT-PCR analysis of pancreatic hormone gene expression in βlox5 cells
Format: cell-based, human
Settings: βlox5 cells expressing PDX-1; data not shown
Procedure: FIG. 2: RT-PCR analysis of pancreatic hormone gene expression in βlox5. The conditions tested were βlox5 cells grown in monolayer culture, βlox5 cells infected with a retroviral vector expressing PDX-1, βlox5 cells grown as three-dimensional aggregates, and βlox5 cells treated with exendin-4. FIG. 2(A) insulin; FIG. 2(B) quantitative RT-PCR analysis of insulin gene expression; FIG. 2(C) other pancreatic hormones. Exendin-4 (Sigma) was used at a concentration of 10 nM. RT-PCR for insulin, somatostatin, glucagon, and IAPP have been described previously (Itkin-Ansari et al., submitted). Quantitative RT-PCR was done by interpolation from a standard curve constructed using a plasmid containing the human insulin cDNA.
PDX-1 also acted synergistically with cell-cell contact to further increase the level of somatostatin expression about 1,000-fold above the cells not expressing PDX-1, to a level similar to that found in normal human islets. To determine whether βlox5 could be induced to express pancreatic hormones, recombinant PDX-1 was expressed in βlox5 using a retroviral vector. […] Therefore, other factors were examined for their ability to induce hormone expression in βlox5 cells expressing PDX-1. […]

B1: betacellulin (protein, UniProt P35070 32-111, looked up)
Betacellulin: DGNSTRSPETNGLLCGDPEENCAATTTQSKRKGHFSRCPKQYKHYCIKGRCRFVVAEQTPSCVCDEGYIGARCERVDLFY
notes: factor reported to induce endocrine differentiation in cell lines and primary cells
B1 was tested. Which “effect on hormone expression in βlox5 cells” value did it give?
Its value is “no effect”.

From patent publication US6911324B2, “Induction of beta cell differentiation in human cells” (The Regents of the University of California, priority 2001, dated 2005)
